Test results taken from publication PMC7240051.

Target: BnaA10.ABF2-cYFP (Brassica napus)

Substance | dual-luciferase assay in tobacco leaves: activity of pBnaC9.RAB18-LUC with BnaA6.RGA expressed together with BnaA10.ABF2, against the reporter only (BnaA10.ABF2 alone: 3.7 times) [times] | dual-luciferase assay in tobacco leaves: activity of pBnaC9.RAB18-LUC with BnaC7.RGA expressed together with BnaA10.ABF2, against the reporter only (BnaA10.ABF2 alone: 3.7 times) [times]
BnaA6.RGA-nYFP (full length) (natural protein) | 6.5 | 
BnaC7.RGA-nYFP (full length) (natural protein) |  | 11.8
